Numbering of substitutions follows the chain as printed.
Tests used:
[1] = molecular target: T1, hiR1-FL-WT-T7 (human, UniProt Q96CC6 1-855); test: FACS, MEF-DKO cells, 3 µg/ml
T1 construct: on MEF-DKO cells
T1 sequence: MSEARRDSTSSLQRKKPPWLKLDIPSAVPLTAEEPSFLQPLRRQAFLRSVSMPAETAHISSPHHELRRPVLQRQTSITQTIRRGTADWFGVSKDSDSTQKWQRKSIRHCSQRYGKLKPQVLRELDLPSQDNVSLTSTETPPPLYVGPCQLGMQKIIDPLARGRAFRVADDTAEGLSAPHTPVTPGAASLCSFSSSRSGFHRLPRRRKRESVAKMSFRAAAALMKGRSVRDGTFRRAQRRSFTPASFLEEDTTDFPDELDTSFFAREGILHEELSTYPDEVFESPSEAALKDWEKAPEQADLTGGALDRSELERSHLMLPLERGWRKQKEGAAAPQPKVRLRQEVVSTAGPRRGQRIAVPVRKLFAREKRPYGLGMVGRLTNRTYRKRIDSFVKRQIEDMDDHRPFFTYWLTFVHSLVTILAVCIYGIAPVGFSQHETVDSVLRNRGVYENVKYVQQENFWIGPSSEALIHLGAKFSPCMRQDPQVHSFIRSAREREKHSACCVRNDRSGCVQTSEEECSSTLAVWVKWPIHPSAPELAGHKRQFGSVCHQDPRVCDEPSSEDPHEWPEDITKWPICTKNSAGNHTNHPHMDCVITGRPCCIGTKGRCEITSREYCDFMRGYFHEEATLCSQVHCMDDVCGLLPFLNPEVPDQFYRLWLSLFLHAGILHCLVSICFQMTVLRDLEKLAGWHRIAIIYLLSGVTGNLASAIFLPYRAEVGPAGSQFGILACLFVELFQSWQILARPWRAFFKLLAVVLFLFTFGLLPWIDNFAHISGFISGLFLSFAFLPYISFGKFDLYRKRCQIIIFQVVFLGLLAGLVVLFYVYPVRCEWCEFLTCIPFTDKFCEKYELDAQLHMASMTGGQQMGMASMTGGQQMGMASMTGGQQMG

[2] = molecular target: T2, hiR2-FL-S537E-T7 (human, UniProt Q6PJF5 1-856); test: FACS, MEF-DKO cells, 3 µg/ml
T2 sequence: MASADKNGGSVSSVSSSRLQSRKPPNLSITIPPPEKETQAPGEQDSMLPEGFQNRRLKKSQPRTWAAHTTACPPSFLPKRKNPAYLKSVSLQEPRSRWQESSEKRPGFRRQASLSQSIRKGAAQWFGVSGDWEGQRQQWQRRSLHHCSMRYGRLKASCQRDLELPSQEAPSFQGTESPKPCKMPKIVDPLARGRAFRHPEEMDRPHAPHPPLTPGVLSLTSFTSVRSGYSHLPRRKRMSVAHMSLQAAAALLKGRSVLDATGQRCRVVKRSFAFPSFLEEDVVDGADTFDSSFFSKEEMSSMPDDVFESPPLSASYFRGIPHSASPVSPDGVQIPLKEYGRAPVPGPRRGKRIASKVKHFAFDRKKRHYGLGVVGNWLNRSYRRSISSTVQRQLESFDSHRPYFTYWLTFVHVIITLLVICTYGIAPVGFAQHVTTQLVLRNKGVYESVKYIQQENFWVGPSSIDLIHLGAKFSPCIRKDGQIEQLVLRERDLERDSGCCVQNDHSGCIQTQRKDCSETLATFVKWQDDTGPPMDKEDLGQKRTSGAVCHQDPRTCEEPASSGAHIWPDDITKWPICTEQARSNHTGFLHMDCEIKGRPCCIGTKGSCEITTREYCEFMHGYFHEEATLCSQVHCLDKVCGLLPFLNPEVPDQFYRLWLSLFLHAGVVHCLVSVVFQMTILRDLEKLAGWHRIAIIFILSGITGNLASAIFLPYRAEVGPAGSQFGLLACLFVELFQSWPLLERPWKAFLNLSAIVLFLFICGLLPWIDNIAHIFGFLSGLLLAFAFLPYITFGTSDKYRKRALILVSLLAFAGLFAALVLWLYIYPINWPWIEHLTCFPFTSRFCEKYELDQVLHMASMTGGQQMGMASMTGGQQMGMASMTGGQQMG

B1: antibody 34 (antibody, V domains shown)
VH: QVTLKESGPGILQPSQTLSLTCSFSGFSLSTFSLGVGWIRQSSGKGLEWLAHIWWDDEKYYNPALKSRLTISKDTSKNQVFLKIANVDAADTATYYCARAYYSKSYYALDYWGQGTSVTVSS
VL: DIQMTQSPSSLSASLGERVSLTCRASQEISGYLSWLQQKPDGTIKRLIYAASTLDSGVPKRFSGSRSGSDYSLAISSLESEDFADYYCLQYANFPFTFGSGTKLEIK
notes: mouse IgG, kappa light chain; also called clone #34; purified antibody 34
[1]
  loss of binding vs wild type: ≥ 95%
[2]
  loss of binding vs wild type: ≥ 95%

B2: antibody 48 (antibody, V domains shown)
VH: QVQLQQSGTELVRPGTSVKVSCKASGYAFTNYLIEWVKQRPGQGLEWIGVINPGSGFTKYNEKFKGKATLTADKSSSTVYMHLSSLTSEDSAVYFCARGLYRAMDYWGQGTSVTVSS
VL: DIQMTQSPASQSASLGESVTITCLASQTIATWLAWYQQKPGKSPQLLIYGATTLADGVPSRFSGGGSGTKFSFKISSLQAEDFVSYYCQQLYSTPYTFGGGTKLEIK
notes: mouse IgG, kappa light chain; also called clone #48; purified antibody 48
[1]
  loss of binding vs wild type: ≥ 60%

B3: antibody 50 (antibody, V domains shown)
VH: B2 VH with T9A, T16A, T30S, V79A, H82Q
VL: B2 VL with A30G, G50A, T52A, T53S, S85N, L91I
notes: mouse IgG, kappa light chain; also called clone #50; purified antibody 50
[1]
  loss of binding vs wild type: ≥ 95%

B4: antibody 16 (antibody, V domains shown)
VH: QVTLKESGPGILQPSQTLSLTCSFSGFSLSTFALGVGWIRQPSGRGLEWLAHIWWDDDKYYNPALKSRLTISKDTSKNHVFLKIANVDTADTATYYCARITTYYYGMDYWGQGTSVTVSS
VL: DIVLSQSPATLSVTPGDSVSLFCRASQSIGNHLHWYQQESHASPRLLIKYASQSISGIPSRFSGSGSGTDFTLSINSVETEDFGMYFCQQSYNWPLTFGAGTKLELK
notes: mouse IgG, kappa light chain; also called clone #16; purified antibody 16
[1]
  loss of binding vs wild type: ≥ 95%

B5: antibody 3 (antibody, V domains shown)
VH: QVTLKESGPGILQPSQTLSLTCSFSGFSLTTFAMGIGWVRQPSGKGLEWLAHIWWDGEKYNNPVLKSRLTISKDTSKNQVFLRIANVDTPDTATYYCARISSIYYIIDNWGQGTSVTVSS
VL: B4 VL with S5T, D17H, F22S, G30S, H32N, Q38K, E39K, A42E, A51V
notes: mouse IgG, kappa light chain; also called clone #3; purified antibody 3
[1]
  loss of binding vs wild type: ≥ 95%

B6: antibody 5 (antibody, V domains shown)
VH: QVTLKESGPGILQPSQTLSLTCSFSGFSLSTFGMGVGWIRQPSGKGLEWLAHIWWDDEKYYNSALKSRLTISKATSKNQAFLKIANVDTADTATYYCARISNYGSNYWYFNVWGTGTTVTVSS
VL: QVVLTQSPALMSASPGEKVTMTCSAGSSVSCMYWYQQKPGSSPRVLIYDTSNLASGVPARFTGSGSGTSYSLTISRMEAEDAASYYCQQWNSYPLTFGAGTKLELK
notes: mouse IgG, kappa light chain; also called clone #5; purified antibody 5
[1]
  loss of binding vs wild type: ≥ 95%
[2]
  loss of binding vs wild type: ≥ 95%

B7: antibody 42 (antibody, V domains shown)
VH: B6 VH with F24L, M34R, S63P, A74D, A80V, K83R, S101Q, N111D
VL: LIVLTQSPAIMSASPGEKVTMTCGATSRISYMFWYQQKPGSSPRVLIYDTSNLASGVPVRFSGSGSGTSYSLTISRVEAEDVATYYCQQWNSYPLTFGAGTKLELK
notes: mouse IgG, kappa light chain; also called clone #42; purified antibody 42
[1]
  loss of binding vs wild type: ≥ 95%
[2]
  loss of binding vs wild type: ≥ 60%

B8: antibody 44 (antibody, V domains shown)
VH: B6 VH with G44E, E58D, S63P, A74D, A80I, A85T, D91E, A98S, S101G, N111D
VL: QIVLTQSPAVMSASPGEKVTMTCTASSSVYYMYWYQQTPGSSPRLLIYDTSNLASGVPVRFSGSGSGTSYSLTISRMEAEDAATYYCQQWNTYPLTFGAGTKLELK
notes: mouse IgG, kappa light chain; also called clone #44; purified antibody 44
[1]
  loss of binding vs wild type: ≥ 95%
[2]
  loss of binding vs wild type: ≥ 60%

B9: antibody 43 (antibody, V domains shown)
VH: B6 VH with T3A, P42S, H52N, E58D, S63P, A74D, T75A, S101G, N111D
VL: B7 VL with L1Q, K18R, G24S, T26N, F33Y, V45L, V77M, V82A, Y86N, N91S
notes: mouse IgG, kappa light chain; also called clone #43; purified antibody 43
[1]
  loss of binding vs wild type: ≥ 95%
[2]
  loss of binding vs wild type: ≥ 60%

B10: antibody 22 (antibody, V domains shown)
VH: B6 VH with A80V
VL: B6 VL with C31Y, S84T
notes: mouse IgG, kappa light chain; also called clone #22; purified antibody 22
[1]
  loss of binding vs wild type: ≥ 95%
[2]
  loss of binding vs wild type: ≥ 60%
